Data on one protein can be found in article doi:10.1101/636423 (bioRxiv, 2019).

The data set concerns the molecule itself. The experiment in a line: native MS.

B1: whole intracellular region of rat PTPRZ (rat PTPRZ-ICR) (domain or fragment)
chain: not shown
As usually defined, the Kd is a measure of binding affinity in units of concentration. Higher therefore signals weaker binding. As usually defined, the stoichiometry N is the number of molecules, sites or subunits per partner or assembly. As to B1, the Kd is about 7 µM and the “stoichiometry N” value was found to be 2.
